Assay [1] addresses mouse Claudine18.2 (mouse) (UniProt P56857). The assay can be described thus: FACS on CHOK1-m18.2 cells.
For assay [2], the target named is Rhesus monkey Claudine18.2 (Rhesus monkey) (UniProt F6YQY3). Briefly: FACS on CHOK1-rh18.2 cells.

B1: Ab26 (antibody, V domains shown)
VH: EVMLVESGGGLVKPGGSLKLSCTASGFTFRSYTMSWVRQTPEKRLEWVATITGGGGNTYFLDSVKGRFTFSRDNAKNALYLQMNSLRSEDTALYYCARLGQTQRNAMDYWGQGTSVTVSS
VL: DIVMTQSPSSLSVSAGEKVTMSCKSSQSLLNSGNQMNYLAWYQQKPGQPPKLLIYGASTRESGVPDRFTGSGSGTDFTLTISSVQAEDLAIYYCQNDHTYPLTFGAGTKLEL
On to B1, for which the FACS MFI in assay [1] stood at 15700; in assay [2], 8290.

B2: Ab30 (antibody, V domains shown)
VH: QVQLKESGPGLVAPSQSLSITCTVSGFSLTKFGVNWVRQPPGKGLEWLGAIWGDGSTNYHSALISRLSINKDNSKSQVFLKLSSLQNVDTATYYCAKSGYGNAMDYWGHGTSVTVSS
VL: DIVMTQSPSSLTVTTGEKVTLNCKSSQSLLNSGNLKNYLTWYQQRPGQPPKLLIYWASTRESGVPYRFTGSGSGTDFTLTISNVQAEDLAIYYCQNDYFFPFTFGSGTKLEIK
For B2, the FACS MFI worked out at 9610 in assay [1] and 10500 in assay [2].

B3: Ab27 (antibody, V domains shown)
VH: QVQLQQSGAELVRPGSSVKISCKASGYAFSNYWMNWVKQRPGQGLEWIGQIYPGNGDTNYNGKFKGKATLTADKSSTTAYIQLSSLTSEDSAVYFCTRIYYGNSFAYWGQGTLVTVS
VL: DIVMTQSPSSLTVTAGERVTMSCKSSQSLLNSGNQKNYLTWYQQKPGQPPKLLIYWASTRESGVPDRFTGSGSGTDFTLTISRVQAQDLAVYYCQNDYYYPLTFGAGTKLELK
Regarding B3, the FACS MFI in assay [1] amounted to 8240; in assay [2], 9240.

B4: Ab05 (antibody, V domains shown)
VH: DVKLVESGEDLVKPGGSLKLSCAASGFTFSNYAMSWVRQTPEKRLEWVAYVSSGGDYIYYADTVKGRFIISRDNARNTLYLQMNSLRSEDTAMYYCARVYFGNSLDYWGQGTTLTVSS
VL: DIVMTQSPSSLTVTAGEKVTLSCKSSQSLLNGGNQKNYLTWYQQRPGQPPKLLIYWASTRESGVPDRFTGSGSGTDFTLIISSVQAEDLAVYYCQNDYYYPWTFGGGTKLEIK
On to B4, for which the FACS MFI in assay [1] worked out at 12500; in assay [2], 9850.

B5: Ab07 (antibody, V domains shown)
VH: EVQLQQSGPELVKPGASVKISCKASGYSFTDYFMNWVKQSHGKGLEWIGRINPYNGDTFYNQKFKGKATLTVDKSSSTAHMELLSLTSEDFAVYYCALYDGYWGAFVYWGQGTLVTVSA
VL: DIQMTQSPASLSVFVGETVTITCRASENIYSNLAWYQQKQGKSPQLLVYAATNLADGVPSRFSGSGSGTQYSLKINSLQSEDFGSYYCQHFWGTPLTFGAGTKLELK
B5: the FACS MFI in assay [1] turned out to be 15000; in assay [2] it was 9040.

B6: Ab31 (antibody, V domains shown)
VH: QIQLAQSGPELKKPGETVKISCKASGYSFTNYGMNWVKQAPGKGLKWMGWINTYSGETKYADDFKGRFDFSLETSARTAYLQIKNLKIEDTATYFCARRDAMDYWGQGTSVTVSS
VL: DIVMTQAAPSVPVTPGESVSISCRSSKSLLNSNGNTYLYWFLQRPGQSPQLLIYRMSNLASGVPDRFSGSGSGTAFTLRISRVEAEDVGVYYCMQHLEFPFTFGSGTKLEIK
For the molecule B6, the FACS MFI in assay [1] came to 7790; in assay [2] it was 8010.

B7: Ab34 (antibody, V domains shown)
VH: EVLLQQSGPELVKPGASVKIPCKASGYTFSDYNMDWVKQSHGKSLEWIGHINPNNDNTIYNQKFKGKATLTVDKSSNTAYMDLRSLSSEDTAVYYCARGAYYGNSMDYWGQGTSVTVSS
VL: DIVMTQSPSSLTVTAGERVTMSCKSSQSLLNGGNQRNYLTWYQQKPGQSPKLLIYWASTWESGVPDRFTGSGSGTDFTLTISSVQAEDLAVYYCQNAYFYPYTFGGGTKLEIK
As to B7, the FACS MFI in assay [1] came to 10700; in assay [2], 6720.

B8: Ab06 (antibody, V domains shown)
VH: EVQLVASGGGLVKPGGSLKLSCAASGITFRSYAMSWVRQTPEKRLEWVATITDGGSYIFYPDNVKGRFTISGDHAKNNLYLQMSHLKSEDTALYFCVRLYYGNSFAYWGQGTLVTVSA
VL: DIVMTQSPSSLTVTAGEKVTLNCKSSQSLFNSGNQKNYLTWYQQKPGQPPKLLIYWASTRESGVPDRFTGSGSGTDFTLTFSSVQAEDLAVYYCQNAYIYPFTFGSGTKLEIK
As to B8, the FACS MFI in assay [1] came to 13200; in assay [2], 14000.

B9: Ab35 (antibody, V domains shown)
VH: DVFLQESGPGLVKPSQSLSLTCTVTGYSITSDYAWNWIRQFPGNKLEWVTYIGYSGTTSYNPSLKSRISITRDTSKNQFFLQLNSVSTEDTATYYCVRRGSYYGSYWFFDVWGAGTTVTVSS
VL: QVVLSQSPAILSASPGEKVTMTCRASSSVSYMHWYQQKPGSSPKPWIYATSNLASGVPPHFSGSGSGTSYSLTISRVEAEDAATYYCQQWTSNPPTFGGGTKLEIK
Regarding B9, the FACS MFI in assay [1] stood at 9610; in assay [2], 8340.

B10: Ab25 (antibody, V domains shown)
VH: EAQLQQSGPELVKPGASVKIFCKASGYTFTDYYINWVKQSHGKSLEWIGDINPNNGGTTYNQKFKGKATLTVDKSSSTASMELRRLTSEDSSVYYCARRDAMDYWGQGTSVTVSS
VL: DIVMTQSQKFMSTTVGDRVSITCTASQNVGPAVAWYQQKPGQSPKLLIYSASRRFTGVPDRFTGSGSGTVFTLTINNVQSEDLADYFCQQYISYPLTFGAGTKLELK
On to B10, for which the FACS MFI in assay [1] came to 23400; in assay [2] it was 12000.

B11: Ab37 (antibody, V domains shown)
VH: EVKLEESGGGLVQPGGSMKLSCVASGFTFSNYWMNWVRQYPEQGLEWVAQIRLNSDNYATHYAESVKGRFTISRDDSRSTVYLQMNNLRAEDTGIYYCTGGGEYWGQGTTLTVSS
VL: DIVMTQSQKFMSTTIGDRVSITCKASQNVDTAVAWYQQKPGQSPKLLIYSASTRYTGVPDRFTGSGSGTDFTLTISNMQSEDLADYFCQQYISYQLTFGAGTKLELK
B11: the FACS MFI in assay [1] stood at 18600; in assay [2], 16700.

B12: Ab03 (antibody, V domains shown)
VH: EVQLQQSGPELVKPGASVKIACKASGYTFTDYNMDWVKQSHGKSLEWIGNINSYYGGTIYNQKFKGKATLTVDKSSSTAYMVLRSLTSEDNAVYYCARPHLGNALDYWGQGTSITVSS
VL: DIVVTQSPSSLTVTPGEKVTMSCKSSQSLFNSGNQKNYLSWYQQNPGQPPKLLIYWASTRQSGVPDRFTGSGSGTDFTLTISSVQAEDLAGYYCQNDYIFPLTFGAGTKLELK
For the molecule B12, the FACS MFI in assay [1] amounted to 2970; in assay [2] it was 1430.

B13: Ab04 (antibody, V domains shown)
VH: EVQLQQSGPELVKPGASVKMSCMASGYTFTDYNIHWVKRSHGSRLEWIGYISPISGGAGYNQKFMDKATLTVDKSSNTAYMELRSLTSEDSAVYYCTRGDYWGQGTTLTVSS
VL: DIVMTQSPSSLAVTVGEKVTMSCKSSQSLLNSGNQKNYLTWYQQKPGQPPKLLIYWASTRKSGVPDRFTGSGSGTDFTLTISSVQAEDLGIYYCLNDYGFPLTFGAGSKLELK
For B13, the FACS MFI came out at 8440 in assay [1] and 2130 in assay [2].

B14: Ab29 (antibody, V domains shown)
VH: EVLLQQSGPELVKPGASVKIPCKASGYTLTDHSMDWVKQSHGKSLEWIGNILPNNGGNIYNQKFRGKATLTVDKSSSTAYMELRSLTSEDTAVYNCARGHYGNSFAYWGQGTLVIVS
VL: DIVMTQSPSSLTVRAGEKVTIYCKSSQSLFNSGNQKNYLTWYQQKPGQPPKLLIYWASTRESGVPHRFTGSGSGTDFTLTISSMQADDLATYYCQNGYFFPYTFGGGTKLEIK
In the case of B14, the FACS MFI turned out to be 21900 in assay [1] and 25700 in assay [2].

The values are drawn from patent US20230095569A1.
